Results as given in patent US8796201B2 (The Board of Trustees of the Leland Stanford Junior …, priority 2002, dated 2014).

B1: FM PEP: recombinant prolyl endopeptidase from Flavobacterium meningosepticum (Genbank D10980) (protein)
chain: QNSNVLKYPETKKVSHTDTYFGTQVSDPYRWLEDDRAEDTKAWVQQEVKFTQDYLAQIPFRDQLKKQLMDIWNYEKISAPFKKGKYTYFSKNDGLQAQSVLYRKDAAGKTEVFLDPNKFSEKGTTSLASVSFNKKGTLVAYSISEGGSDWNKIIILDAETKKQLDETLLDVKFSGISWLGDEGFFYSSYDKPKEGSVLSGMTDKHKVYFHKLGTKQSQDELIIGGDKFPRRYIGAYVTDDQRYLVVSAANATNGNELYIKDLKNKTDFIPIITGFDSNVNVADTDGDTLYLFTDKDAPNKRLVKTTIQNPKAETWKDVIAETSEPLEINTGGGYFFATYMKDAIDQVKQYDKNGKLVRAIKLPGSGNASGFGGEKTEKDLYYSFTNYITPPTIFKYNVTTGNSEVYQKPKVKFNPENYVSEQVFYTSSDGTKIPMMISYKKGLKKDGKNPTILYSYGGFNISLQPAFSVVNAIWMENGGIYAVPNIRGGGEYGKKWHDAGTKMQKKNVFNDFIAAGEYLQKNGYTSKEYMALSGRSNGGLLVGATMTMRPDLAKVAFPGVGVLDMLRYNKFTAGAGWAYDYGTAEDSKEMFEYLKSYSPVHNVKAGTCYPSTMVITSDHDDRVVPAHSFKFGSELQAKQSCKNPILIRIETNAGHGAGRSTEQVVAENADLLSFALYEMGIKSLK
B2: MX PEP: novel recombinant prolyl endopeptidase from Myxococcus xanthus (Genbank AF127082, SEQ ID NO:47) (protein, listed as Myxococcus xanthus)
chain: MSYPATRAEQVVDTLHGVQVADPYRWLEDEKAPEVQTWMTAQNAHAREALAKFPGREALAARFKELFYTDSVSTPSRRNGRFFYVRTHKDKEKAILYWRQGESGQEKVLLDPNGWSKDGTVSLGTWAVSWDGKKVAFAQKPNAADEAVLHVIDVDSGEWSKVDVIEGGKYATPKWTPDSKGFYYEWLPTDPSIKVDERPGYTTIRYHTLGTEPSKDTVVHERTGDPTTFLQSDLSRDGKYLFVYILRGWSENDVYWKRPGEKDFRLLVKGVGAKYEVHAWKDRFYVLTDEGAPRQRVFEVDPAKPARASWKEIVPEDSSASLLSVSIVGGHLSLEYLKDATSEVRVATLKGKPVRTVQLPGVGAASNLMGLEDLDDAYYVFTSFTTPRQIYKTSVSTGKSELWAKVDVPMNPEQYQVEQVFYASKDGTKVPMFVVHRKDLKRDGNAPTLLYGYGGFNVNMEANFRSSILPWLDAGGVYAVANLRGGGEYGKAWHDAGRLDKKQNVFDDFHAAAEYLVQQKYTQPKRLAIYGGSNGGLLVGAAMTQRPELYGAVVCAVPLLDMVRYHLFGSGRTWIPEYGTAEKPEDFKTLHAYSPYHHVRPDVRYPALLMMAADHDDRVDPMHARKFVAAVQNSPGNPATALLRIEANAGHGGADQVAKAIESSVDLYSFLFQVLDVQGAQGGVAAQGR

Columns and labels:
[1] = Kinetic analysis with reference substrate Succinyl-Ala-Pro-pNA; format: biochemical; conditions: Succinyl-Ala-Pro-p-nitroanilide hydrolysis
Protocol: Activity Assays. Post-proline cleavage activity was measured using Z-Gly-Pro-p-nitroanilide and Succinyl-Ala-Pro-p-nitroanilide (Bachem, CA). Z-Gly-Pro-pNA was dissolved in a PBS:water:dioxane (8:1.2:0.8) assay mixture. The concentration of Z-Gly-Pro-pNA was varied from 100-600 μM. Although the substrate Z-Gly-Pro-pNA was effective in detecting enzyme activity, its insolubility at higher concentrations precluded kinetic measurements under substrate-saturated conditions. In contrast, Succinyl-Ala-Pro-pNA, had the advantage of high water solubility at all pH values tested, and was therefore a preferred substrate for kinetic studies. […] Reaction mixtures ([…] consisted of 30 μl of 10× pH buffer, final concentration of 0.01 μM enzyme, and Suc-Ala-Pro-pNA to final concentrations between 100 μM to 4 mM.
Kinetic Analysis with Reference Substrates. The activity of each PEP was initially evaluated using the standard chromogenic substrate succinyl-Ala-Pro-pNA. Release of the p-nitroaniline was detected at 410 nm, and kinetic data was fitted to the Michaelis-Menten relationship. Succinyl-Ala-Pro-pNA was selected as a reference substrate instead of the more commonly used Z-Gly-Pro-pNA due to the low solubility of the latter substrate, which necessitated use of co-solvents. The calculated kcat and KM values of FM, MX and SC PEPs for succinyl-Ala-Pro-pNA are tabulated (Table 3). […] The higher specificity of MX can be attributed mainly to its higher affinity for the substrate, as reflected in the KM.

[2] = system: LQLQPFPQPQLPYPQPQLPYPQPQLPYPQPQPF (33-mer); experiment: Hydrolysis of the 33-mer gliadin peptide by PEPs, HPLC; format: biochemical, wheat; conditions: for rate of substrate (33-mer+32-mer) disappearance: 10 μM substrate; for initial hydrolytic products of the 33-mer: LC/MS/MS
Protocol: FIGS. 11A-11C. Hydrolysis of (SEQ ID NO:12) […] by FM PEP, MX PEP and SC PEP. (A) Time dependence of hydrolysis in the presence of 10 μM substrate and 0.1 μM enzyme. […] (B) Initial cleavage fragments observed due to hydrolysis by FM PEP (t=1 min) and MX PEP (t=5 min). (C) Summary of initial cleavage fragments from FM PEP and MX PEP catalyzed hydrolysis of the 33-mer substrate.
Substrate Specificity. In addition to the reference substrates above, enzyme specificity was also evaluated using two immunogenic peptides derived from the sequence of γ-gliadin proteins in gluten. Both peptides were synthesized using solid-phase peptide synthesis. The peptide (SEQ ID NO:4) […] contains the immunodominant γII-epitope, and is resistant to proteolysis by pepsin or any pancreatic enzyme. PEP specificity toward this substrate was assessed in a competitive assay in which 100 μM (SEQ ID NO:4) […] and 100 μM Suc-Ala-Pro-pNA were mixed and reacted with 0.02 μM PEP at 25° C. The initial velocity of Suc-Ala-Pro-pNA cleavage was measured spectrophotometrically, whereas the initial velocity of (SEQ ID NO:4) […] hydrolysis was determined via HPLC. The apparent specificity, kcat/KM, for the hydrolysis of (SEQ ID NO:4) […] could be determined based on the known kcat/KM of the enzyme for Suc-Ala-Pro-pNA and the observed reaction rates of the two substrates. […] Proteolysis reactions were performed at 37° C. in PBS buffer with 5-100 μM peptide and 0.1 μM PEP for time periods of 1 min-4 hrs.
The decrease in substrate concentration as well as concomitant intermediate and product build-up were monitored with HPLC analysis. RP-HPLC was performed on a system consisting of Beckman or Rainin Dynamax SD-200, a Varian 340 UV detector set at 215 nm and 280 nm. Solvent A was H2O with 0.1% TFA and solvent B was acetonitrile with 0.1% TFA; gradient used: 0-5% B in 0-15 min, 5-30% B in 15-30′, 30-100% B in 30-35 min, 100% B for 5′; flow 1 ml/min; separation was performed on a 4.6×150 mm reverse phase C-18 column (Vydac, Hesperia, Calif., USA). Samples were centrifuged for 10 min at 13,400 g, prior to injection of 10-100 μl. […] Thus, multiple peptides accumulate during the course of the reaction, some of which are secondary PEP substrates in themselves.
Chain Length Tolerance and Selectivity. […] Thus, the SC PEP appears to have a severe chain length restriction for long peptide substrates.

PQPQLPYPQPQLP = experiment: Competitive assay of PEP specificity for gliadin peptide versus Suc-Ala-Pro-pNA; format: biochemical, wheat; conditions: PQPQLPYPQPQLP vs Suc-Ala-Pro-pNA
Protocol: Substrate Specificity. In addition to the reference substrates above, enzyme specificity was also evaluated using two immunogenic peptides derived from the sequence of γ-gliadin proteins in gluten. Both peptides were synthesized using solid-phase peptide synthesis. The peptide (SEQ ID NO:4) […] contains the immunodominant γII-epitope, and is resistant to proteolysis by pepsin or any pancreatic enzyme. PEP specificity toward this substrate was assessed in a competitive assay in which 100 μM (SEQ ID NO:4) […] and 100 μM Suc-Ala-Pro-pNA were mixed and reacted with 0.02 μM PEP at 25° C. The initial velocity of Suc-Ala-Pro-pNA cleavage was measured spectrophotometrically, whereas the initial velocity of (SEQ ID NO:4) […] hydrolysis was determined via HPLC. The apparent specificity, kcat/KM, for the hydrolysis of (SEQ ID NO:4) […] could be determined based on the known kcat/KM of the enzyme for Suc-Ala-Pro-pNA and the observed reaction rates of the two substrates. […]
The kcat/KM values of each PEP were determined in an assay mixture containing (SEQ ID NO:4) […] as well as Suc-Ala-Pro-pNA as a competing substrate. The rates of disappearance of both substrates were determined by independent detection methods. The initial rate of disappearance of (SEQ ID NO:4) […] was measured by HPLC, whereas the rate of consumption of Suc-Ala-Pro-pNA was measured spectrophotometrically. […]

[3] = pH stability (activity retained after acid exposure); format: in vitro ADME; conditions: after 10 min of incubation at pH values between 1.6 and 3.9
Protocol: pH Stability. The ability to retain enzyme activity after exposure to acidic environments was determined. […] The recovered enzyme activity was measured spectrophotometrically and compared with non-acid treated controls under identical conditions. PEP Stability. Although orally administered therapeutic proteins can be formulated to protect them from the acidic and proteolytic environment of the stomach, intrinsic acid stability of a PEP is likely to be a desirable characteristic in its use as a therapeutic agent for Celiac Sprue. […] Thus, although all PEPs appear to be moderately acid-stable, the MX PEP is most versatile. Since therapeutic efficacy would require a PEP to act upon gluten in conjunction with pancreatic proteases that are secreted into the duodenum, the resistance of FM PEP and MX PEP toward both gastric and pancreatic enzymes was evaluated. For this we pre-incubated the enzymes with physiological quantities of either pepsin (at pH 2) or a cocktail comprising of trypsin, chymotrypsin, elastase and carboxypeptidase A (at pH 6.5).

Molecule | Kcat [1] | Km [1] | time to hydrolyze 10 μM of the 33-mer ([2]; 0.1 μM enzyme) | rate of substrate (33-mer+32-mer) disappearance ([2]; 0.1 μM enzyme) | initial hydrolytic products of the 33-mer [2] | faster action on the 33-mer than the MX PEP ([2]; based on initial rates) | faster action on the 33-mer than the SC PEP ([2]; based on initial rates) | higher specificity for the gluten peptide as compared to the chromogenic substrate (PQPQLPYPQPQLP) | original activity retained [3]
B1 | 33 s⁻¹ | 910 µM | 2 to 3 min | 2.3 µM/min | yielded longer intermediates | 5 fold | > 20 fold | 5 fold | 50-70%
B2 | 51 s⁻¹ | 350 µM |  | 0.43 µM/min | fragments mostly of 4-5 residues |  |  | 5 fold | 70-90%
